{"source": "paper PMC8288866", "about": "“MKRN3 regulates the epigenetic switch of mammalian puberty via ubiquitination of MBD3” (National Science Review, 2020)", "molecules": {"B1": {"name": "His6-tagged MBD3 (natural protein, human, UniProt O95983 1-291, looked up)", "chain": "MERKRWECPALPQGWEREEVPRRSGLSAGHRDVFYYSPSGKKFRSKPQLARYLGGSMDLSTFDFRTGKMLMSKMNKSRQRVRYDSSNQVKGKPDLNTALPVRQTASIFKQPVTKITNHPSNKVKSDPQKAVDQPRQLFWEKKLSGLNAFDIAEELVKTMDLPKGLQGVGPGCTDETLLSAIASALHTSTMPITGQLSAAVEKNPGVWLNTTQPLCKAFMVTDEDIRKQEELVQQVRKRLEEALMADMLAHVEELARDGEAPLDKACAEDDDEEDEEEEEEEPDPDPEMEHV", "notes": "MBD3, human; also called recombinant MBD3; recombinant human MBD3 protein; source: recombinant"}}, "key": {"MBD3 (Homo sapiens) [1]": {"biological_target": "T1, MBD3 (Homo sapiens) (UniProt O95983)", "T1 sequence": "B1 chain", "assay": "competition", "conditions": "EMSA with 32P-labeled PCR probes, binding buffer, salt, pH and temperature not in the material"}, "MBD3 (Homo sapiens) [2]": {"biological_target": "T1, MBD3 (Homo sapiens)", "assay": "EMSA", "conditions": "EMSA with 32P-labeled PCR probes, binding buffer, salt, pH and temperature not in the material"}, "[3]": {"biological_target": "T2, recombinant MKRN3 protein (GST-tagged) (human, UniProt Q13064 1-507)", "T2 construct": "MKRN3 (Makorin ring finger protein 3), human, E3 ubiquitin ligase; also called Makorin ring finger protein 3; source: recombinant", "T2 sequence (looked up)": "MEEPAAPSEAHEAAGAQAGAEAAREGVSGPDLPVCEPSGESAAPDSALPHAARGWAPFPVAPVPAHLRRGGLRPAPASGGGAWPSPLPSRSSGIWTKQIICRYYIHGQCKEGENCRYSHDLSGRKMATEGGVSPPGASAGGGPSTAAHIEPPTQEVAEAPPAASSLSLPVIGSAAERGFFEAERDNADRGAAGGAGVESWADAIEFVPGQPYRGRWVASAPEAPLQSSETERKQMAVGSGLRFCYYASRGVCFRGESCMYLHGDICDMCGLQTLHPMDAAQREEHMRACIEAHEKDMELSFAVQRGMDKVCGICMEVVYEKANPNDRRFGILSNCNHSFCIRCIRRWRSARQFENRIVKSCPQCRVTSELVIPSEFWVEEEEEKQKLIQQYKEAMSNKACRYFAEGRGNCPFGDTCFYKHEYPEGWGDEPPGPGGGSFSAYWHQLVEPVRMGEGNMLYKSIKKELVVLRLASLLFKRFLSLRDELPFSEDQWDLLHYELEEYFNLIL", "assay": "pull-down; GST pull-down of MKRN3 protein with His6-tagged MBD3, in vitro", "conditions": "both partners purified"}}}
{"molecule": "TTCTTCAGCTTTGGGACTCAGACTGGCTTTCCTTGCTCCTCAGCTTGCGGACGGCCTACTGTGGGACCTTGGGATCGTGTGAGTTAATACTTAATAAACTCTCCTATGTGCGTGTGTTTGTGTGTGTGTGTGTGTGTGTATGTATTCTGTCCCTCTAGAGAATGCTGAGTAATACA (double strand) [GNRH1 promoter 5hmC competitor]", "values": [{"measurement": "binding", "setting": "MBD3 (Homo sapiens) [1]; 5-hydroxymethylcytosine", "result": "binds"}]}
{"molecule": "TTCTTCAGCTTTGGGACTCAGACTGGCTTTCCTTGCTCCTCAGCTTGCGGACGGCCTACTGTGGGACCTTGGGATCGTGTGAGTTAATACTTAATAAACTCTCCTATGTGCGTGTGTTTGTGTGTGTGTGTGTGTGTGTATGTATTCTGTCCCTCTAGAGAATGCTGAGTAATACA (double strand) [GNRH1 promoter 5hmC probe]", "values": [{"measurement": "binding", "setting": "MBD3 (Homo sapiens) [2]; all cytosines 5-hydroxymethylcytosine (PCR with 5hm-dCTP; primer-derived cytosines presumably unmodified)", "result": "binds"}]}
{"molecule": "TTCTTCAGCTTTGGGACTCAGACTGGCTTTCCTTGCTCCTCAGCTTGCGGACGGCCTACTGTGGGACCTTGGGATCGTGTGAGTTAATACTTAATAAACTCTCCTATGTGCGTGTGTTTGTGTGTGTGTGTGTGTGTGTATGTATTCTGTCCCTCTAGAGAATGCTGAGTAATACA (double strand) [GNRH1 promoter 5mC probe]", "values": [{"measurement": "binding", "setting": "MBD3 (Homo sapiens) [2]; 5-methylcytosine (PCR with 5m-dCTP; primer-derived cytosines presumably unmodified)", "result": "no binding"}]}
{"molecule": "TTCTTCAGCTTTGGGACTCAGACTGGCTTTCCTTGCTCCTCAGCTTGCGGACGGCCTACTGTGGGACCTTGGGATCGTGTGAGTTAATACTTAATAAACTCTCCTATGTGCGTGTGTTTGTGTGTGTGTGTGTGTGTGTATGTATTCTGTCCCTCTAGAGAATGCTGAGTAATACA (double strand) [GNRH1 promoter unmodified C probe]", "values": [{"measurement": "binding", "setting": "MBD3 (Homo sapiens) [2]", "result": "binds more weakly"}]}
{"molecule": "TTCTTCAGCTTTGGGACTCAGACTGGCTTTCCTTGCTCCTCAGCTTGCGGACGGCCTACTGTGGGACCTTGGGATCGTGTGAGTTAATACTTAATAAACTCTCCTATGTGCGTGTGTTTGTGTGTGTGTGTGTGTGTGTATGTATTCTGTCCCTCTAGAGAATGCTGAGTAATACA (double strand) [GNRH1 promoter unmodified competitor]", "values": [{"measurement": "binding", "setting": "MBD3 (Homo sapiens) [1]", "result": "binds more weakly"}]}
{"molecule": "B1", "values": [{"measurement": "binding result", "setting": "[3]", "result": "binds"}]}
